Measured values: patent publication US20110129470A1 (BOARD OF TRUSTEES OF THE UNIVERSITY OF ILLNOIS, published 2011)

Target: the molecule itself
Assay: X-ray crystal structure of human dCK
Text: Crystals were transferred to a cryoprotectant solution that in the case of the citrate condition was made of mineral oil (Sigma) while for the crystals grown in PEG it was composed of the mother liquor and 10% (w/v) xylitol-10% (w/v) sucrose. Once the crystals were mounted in loops, they were frozen by directly immersing them in liquid nitrogen. X-ray data were collected at the Advanced Photon Source using the BioCARS beamlines BM-C and BM-D, and the SERCAT beamline ID-22.
Data for the MAD data set were collected to 2.3 Å resolution. A partially built model into the MAD electron density was used to solve the tetragonal crystals. The electron density for dCK extended to the last residue (Leu260), while the N-terminus (residues 1 to 19) was flexible and could not be modeled. […] The ligands were refined without conformational torsion-angle restraints in order to prevent bias towards a particular ring conformation for the sugars.

B1: Human deoxycytidine kinase (dCK), wild type (enzyme)
chain: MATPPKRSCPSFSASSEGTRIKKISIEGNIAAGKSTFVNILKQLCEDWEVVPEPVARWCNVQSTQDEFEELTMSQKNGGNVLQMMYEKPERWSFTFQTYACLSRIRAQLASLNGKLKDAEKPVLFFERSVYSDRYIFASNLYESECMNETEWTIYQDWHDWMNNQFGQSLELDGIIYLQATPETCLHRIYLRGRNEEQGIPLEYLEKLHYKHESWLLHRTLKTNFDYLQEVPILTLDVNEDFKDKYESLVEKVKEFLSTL
modifications: selenomethionine-substituted protein was used for the MAD phasing data set
notes: Recombinant protein from E. coli; the His-tag was cleaved by thrombin before crystallisation; Residues 1 to 19 were flexible and not modelled; It is a homodimer in the crystal structure; also called human dCK; WT dCK
binding result: binds
